Experiments:
Assay in all cases: cell-based or functional assay
[1] = target: WT KRAS peptide (SEQ ID NO: 55) pulsed on APCs from a donor with a DRB1 07:01 haplotype (human, UniProt P01903 26-254)
[2] = target: WT KRAS peptide (SEQ ID NO: 55) pulsed on APCs from a donor with a DRB1 01:01 haplotype (human, UniProt P01903 26-254)
[3] = target: KRAS^G12V peptide (SEQ ID NO: 53) pulsed on APCs from the HLA-DRB1 mismatch donor (human)
[4] = target: WT KRAS peptide (SEQ ID NO: 55) pulsed on autologous APCs/DCs of the patient of Example 1 (Patient 4148) (human, UniProt P01903 26-254)
WT KRAS peptide (SEQ ID NO: 55) pulsed on autologous APCs/DCs of the patient of Example 1 (Patient 4148), sequence (P01111 1-24, chain 1 of 2): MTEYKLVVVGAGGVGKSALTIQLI
WT KRAS peptide (SEQ ID NO: 55) pulsed on autologous APCs/DCs of the patient of Example 1 (Patient 4148), sequence (P01903 26-254, chain 2 of 2): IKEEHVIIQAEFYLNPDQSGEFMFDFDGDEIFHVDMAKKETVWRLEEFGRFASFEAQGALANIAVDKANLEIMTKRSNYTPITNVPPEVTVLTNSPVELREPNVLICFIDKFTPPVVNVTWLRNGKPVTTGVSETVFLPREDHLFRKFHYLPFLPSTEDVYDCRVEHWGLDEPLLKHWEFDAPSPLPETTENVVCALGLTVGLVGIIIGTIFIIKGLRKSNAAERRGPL

[5] = target: WT KRAS peptide (SEQ ID NO: 55) pulsed on APCs from the HLA-DRB1 mismatch donor (human)

KRAS^G12V peptide (SEQ ID NO: 53) pulsed on APCs from the HLA-DRB1 mismatch donor (human), sequence (Q05147 1-24, stated change not applied): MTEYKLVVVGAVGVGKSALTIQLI

- IFN-γ secretion measured by ELISPOT [1]: ~291 ELISPOT count
- IFN-γ secretion measured by ELISPOT [2]: 2 ELISPOT count
- IFN-γ secretion measured by ELISPOT [3]: 41 ELISPOT count
- IFN-γ secretion measured by ELISPOT [4]: ~354 ELISPOT count
- IFN-γ secretion measured by ELISPOT [5]: 58 ELISPOT count
B1: KRAS^G12V-HLA-DRB1*07:01 TCR of Example 2 (cysteine substituted, LVL-modified murine constant region) (TCR, V domains shown)
V domain 1: GENVEQHPSTLSVQEGDSAVIKCTYSDSASNYFPWYKQELGKGPQLIIDIRSNVGEKKDQRIAVTLNKTAKHFSLHITETQPEDSAVYFCAASTGGGNKLTFGTGTQLKVEL
V domain 2: LLLGPAGSGLGAVVSQHPSRVICKSGTSVKIECRSLDFQATTMFWYRQFPKQSLMLMATSNEGSKATYEQGVEKDKFLINHASLTLSTLTVTSAHPEDSSFYICSAREGAGGMGTQYFGPGTRLLVLE

Reference: patent publication US20250250318A1 (US Dept. of Health and Human Services, published 2025)
